From patent US20260049138A1 (Chugai, published 2026)
Substitutions are numbered along the chain they refer to. Numbers in names are those of the source.

B1: CE115HA000 G100bL one-arm antibody (antibody, human IgG1, kappa, L234A L235A, N297A, name in Kabat numbering)
heavy: QVQLVESGGGVVQPGRSLRLSCAASGFTFSNAWMHWVRQAPGKGLEWVAQIKAKSNNYATYYAESVKGRFTISRDDSKNSLYLQMNSLKTEDTAVYYCRYVHYGAYYLVDAWGQGTTVTVSSASTKGPSVFPLAPSSKSTSGGTAALGCLVKDYFPEPVTVSWNSGALTSGVHTFPAVLQSSGLYSLSSVVTVPSSSLGTQTYICNVNHKPSNTKVDKKVEPKSCDKTHTCPPCPAPEAAGGPSVFLFPPKPKDTLMISRTPEVTCVVVDVSHEDPEVKFNWYVDGVEVHNAKTKPREEQYASTYRVVSVLTVLHQDWLNGKEYKCKVSNKALPAPIEKTISKAKGQPREPQVYTLPPSRCELTKNQVSLSCAVKGFYPSDIAVEWESNGQPENNYKTTPPVLDSDGSFFLVSKLTVDKSRWQQGNVFSCSVMHEALHNHYTQKSLSLSPDYKDDDDK
chain: EPKSSDKTHTCPPCPAPELLGGPSVFLFPPKPKDTLMISRTPEVTCVVVDVSHEDPEVKFNWYVDGVEVHNAKTKPREEQYNSTYRVVSVLTVLHQDWLNGKEYKCKVSNKALPAPIEKTISKAKGQPREPQVCTLPPSRDELTKNQVSLWCLVKGFYPSDIAVEWESNGQPENNYKTTPPVLDSDGSFFLYSKLTVDKSRWQQGNVFSCSVMHEALHNRYTQKSLSLSP
light: DIVMTQSPLSLPVTPGEPASISCRSSQSLVHSNRNTYLHWYQQKPGQAPRLLIYKVSNRFSGVPDRFSGSGSGTDFTLKISRVEAEDVGVYYCGQGTQVPYTFGQGTKLEIKRTVAAPSVFIFPPSDEQLKSGTASVVCLLNNFYPREAKVQWKVDNALQSGNSQESVTEQDSKDSTYSLSSTLTLSKADYEKHKVYACEVTHQGLSSPVTKSFNRGEC
B2: CE115HA000 I51E one-arm antibody (antibody, human IgG1, kappa, L234A L235A, N297A, name in Kabat numbering)
heavy: B1 heavy with I51E, L108G
chain: B1 chain
light: B1 light
B3: CE115HA000 K43E one-arm antibody (antibody, human IgG1, kappa, L234A L235A, N297A, name in Kabat numbering)
heavy: B1 heavy with K43E, L108G
chain: B1 chain
light: B1 light
B4: CE115HA000 H35S one-arm antibody (antibody, human IgG1, kappa, L234A L235A, N297A, name in Kabat numbering)
heavy: B1 heavy with H35S, L108G
chain: B1 chain
light: B1 light
B5: CE115HA000 H35L one-arm antibody (antibody, human IgG1, kappa, L234A L235A, N297A, name in Kabat numbering)
heavy: B1 heavy with H35L, L108G
chain: B1 chain
light: B1 light
B6: CE115HA000 H35F one-arm antibody (antibody, human IgG1, kappa, L234A L235A, N297A, name in Kabat numbering)
heavy: B1 heavy with H35F, L108G
chain: B1 chain
light: B1 light
B7: CE115HA000 G100bY one-arm antibody (antibody, human IgG1, kappa, L234A L235A, N297A, name in Kabat numbering)
heavy: B1 heavy with L108Y
chain: B1 chain
light: B1 light
B8: CE115HA000 G100bS one-arm antibody (antibody, human IgG1, kappa, L234A L235A, N297A, name in Kabat numbering)
heavy: B1 heavy with L108S
chain: B1 chain
light: B1 light
B9: CE115HA000 H96L one-arm antibody (antibody, human IgG1, kappa, L234A L235A, N297A, name in Kabat numbering)
heavy: B1 heavy with H102L, L108G
chain: B1 chain
light: B1 light
B10: CE115HA000 H35T one-arm antibody (antibody, human IgG1, kappa, L234A L235A, N297A, name in Kabat numbering)
heavy: B1 heavy with H35T, L108G
chain: B1 chain
light: B1 light
B11: CE115HA000 H35Y one-arm antibody (antibody, human IgG1, kappa, L234A L235A, N297A, name in Kabat numbering)
heavy: B1 heavy with H35Y, L108G
chain: B1 chain
light: B1 light
B12: CE115HA000 H35E one-arm antibody (antibody, human IgG1, kappa, L234A L235A, N297A, name in Kabat numbering)
heavy: B1 heavy with H35E, L108G
chain: B1 chain
light: B1 light
B13: CE115HA000 H35R one-arm antibody (antibody, human IgG1, kappa, L234A L235A, N297A, name in Kabat numbering)
heavy: B1 heavy with H35R, L108G
chain: B1 chain
light: B1 light
B14: CE115HA000 H96P one-arm antibody (antibody, human IgG1, kappa, L234A L235A, N297A, name in Kabat numbering)
heavy: B1 heavy with H102P, L108G
chain: B1 chain
light: B1 light
B15: CE115HA000 H35D one-arm antibody (antibody, human IgG1, kappa, L234A L235A, N297A, name in Kabat numbering)
heavy: B1 heavy with H35D, L108G
chain: B1 chain
light: B1 light
B16: CE115HA000 H35V one-arm antibody (antibody, human IgG1, kappa, L234A L235A, N297A, name in Kabat numbering)
heavy: B1 heavy with H35V, L108G
chain: B1 chain
light: B1 light
B17: CE115HA000 H96R one-arm antibody (antibody, human IgG1, kappa, L234A L235A, N297A, name in Kabat numbering)
heavy: B1 heavy with H102R, L108G
chain: B1 chain
light: B1 light
B18: CE115HA000 H35G one-arm antibody (antibody, human IgG1, kappa, L234A L235A, N297A, name in Kabat numbering)
heavy: B1 heavy with H35G, L108G
chain: B1 chain
light: B1 light
B19: CE115HA000 H96S one-arm antibody (antibody, human IgG1, kappa, L234A L235A, N297A, name in Kabat numbering)
heavy: B1 heavy with H102S, L108G
chain: B1 chain
light: B1 light
B20: CE115HA000 I51D one-arm antibody (antibody, human IgG1, kappa, L234A L235A, N297A, name in Kabat numbering)
heavy: B1 heavy with I51D, L108G
chain: B1 chain
light: B1 light
B21: CE115HA000 H35M one-arm antibody (antibody, human IgG1, kappa, L234A L235A, N297A, name in Kabat numbering)
heavy: B1 heavy with H35M, L108G
chain: B1 chain
light: B1 light
B22: CE115HA000 H35N one-arm antibody (antibody, human IgG1, kappa, L234A L235A, N297A, name in Kabat numbering)
heavy: B1 heavy with H35N, L108G
chain: B1 chain
light: B1 light
B23: CE115HA000 H96Y one-arm antibody (antibody, human IgG1, kappa, L234A L235A, N297A, name in Kabat numbering)
heavy: B1 heavy with H102Y, L108G
chain: B1 chain
light: B1 light
B24: CE115HA000 H96K one-arm antibody (antibody, human IgG1, kappa, L234A L235A, N297A, name in Kabat numbering)
heavy: B1 heavy with H102K, L108G
chain: B1 chain
light: B1 light
B25: CE115HA000 H35K one-arm antibody (antibody, human IgG1, kappa, L234A L235A, N297A, name in Kabat numbering)
heavy: B1 heavy with H35K, L108G
chain: B1 chain
light: B1 light
B26: CE115HA000 K43Q one-arm antibody (antibody, human IgG1, kappa, L234A L235A, N297A, name in Kabat numbering)
heavy: B1 heavy with K43Q, L108G
chain: B1 chain
light: B1 light
B27: CE115HA000 H96Q one-arm antibody (antibody, human IgG1, kappa, L234A L235A, N297A, name in Kabat numbering)
heavy: B1 heavy with H102Q, L108G
chain: B1 chain
light: B1 light
B28: CE115HA000 H96G one-arm antibody (antibody, human IgG1, kappa, L234A L235A, N297A, name in Kabat numbering)
heavy: B1 heavy with H102G, L108G
chain: B1 chain
light: B1 light
B29: CE115HA000 H35W one-arm antibody (antibody, human IgG1, kappa, L234A L235A, N297A, name in Kabat numbering)
heavy: B1 heavy with H35W, L108G
chain: B1 chain
light: B1 light
B30: CE115HA000 H35Q one-arm antibody (antibody, human IgG1, kappa, L234A L235A, N297A, name in Kabat numbering)
heavy: B1 heavy with H35Q, L108G
chain: B1 chain
light: B1 light
B31: CE115HA000 H35I one-arm antibody (antibody, human IgG1, kappa, L234A L235A, N297A, name in Kabat numbering)
heavy: B1 heavy with H35I, L108G
chain: B1 chain
light: B1 light

Target: T1, CD3ε homodimer protein (human, UniProt P07766 23-126, limits assumed, sulfo-tag or biotin label in the ECL assays; amine-coupled to the chip in SPR)
T1 construct: also called human CD3ε homodimer protein; CD3 (CD3ε)
T1 sequence (P07766 23-126 limits assumed): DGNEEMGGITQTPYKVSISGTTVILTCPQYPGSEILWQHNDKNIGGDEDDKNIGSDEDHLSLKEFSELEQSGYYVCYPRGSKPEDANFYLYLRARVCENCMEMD
Assay: SPR Biacore T200; CD3ε homodimer on CM4 chip;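 note: Single-residue variant antibodies injected as analyte over CD3ε homodimer immobilized by amine coupling, run at 25 °C in HBS-EP+ buffer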

Binder | ratio of amounts bound Z=Y/X (altered form / CE115HA000)
B1 | 0.27
B2 | 0.55
B3 | 0.9
B4 | 0.23
B5 | 0.11
B6 | 0.21
B7 | 0.23
B8 | 0.52
B9 | 0.14
B10 | 0.26
B11 | 0.16
B12 | 0.19
B13 | 0.14
B14 | 0.12
B15 | 0.2
B16 | 0.22

Binder | ratio of amounts bound Z=Y/X (altered form / CE115HA000)
B17 | 0.46
B18 | 0.22
B19 | 0.44
B20 | 0.29
B21 | 0.29
B22 | 0.35
B23 | 0.17
B24 | 0.35
B25 | 0.15
B26 | 0.99
B27 | 0.42
B28 | 0.43
B29 | 0.22
B30 | 0.13
B31 | 0.12
